Data set [1] deals with the molecule itself. In words: SEC-MALS, oligomeric state of the dominant species (D = dimer). The method, then:
(§1) FIG. 14. […] Samples were prepared in 20 mM Tris·HCl, 150 mM sodium chloride, pH 7.5.
(§2) To ascertain the oligomerisation state of dIG proteins, SEC-MALS was performed in a Dawn Helios™ II apparatus (Wyatt Technologies) coupled to a SEC Superdex™ 75 Increase 10/300 column. The column was equilibrated with PBS or buffer B at 25° C. and operated at a flow rate of 0.5 mL/min. A total volume of 100-165 μL of protein solution at 1-3.0 mg/mL was employed for each sample. Data processing and analysis proceeded with Astra 7 software (Wyatt Technologies), for which a typical dn/dc value for proteins (0.185 mL/g) was assumed.
For orientation: In gel filtration, larger molecules generally elute earlier.

Data set [2] deals with the molecule itself. The data set is described as follows: SEC-MALS, self-association, PBS buffer. The procedure:
FIG. 13. […] All experiments were carried out with PBS buffer.
as §2

Data set [3] concerns the molecule itself. In words: SEC-MALS, oligomeric state of the dominant species (M = monomer, D = dimer). The method, then: FIG. 12. Biochemical characterization of the dIG8 design. a, Far-ultraviolet circular dichroism spectra (25° C., 95° C.). b, Thermal denaturation monitored at 220 nm by circular dichroism. The design denatures at temperatures above 95° C. c, SEC-MALS analysis. The protein is monodispersed and has an estimated molecular weight of 16.6 kDa, which lies between that corresponding to the theoretical monomer (10.3 kDa) and dimer (20.6 kDa). The protein includes the thrombin cleavage site and the hexa-histidine purification tag, which adds 2.3 kDa to the design. d, Chemical denaturation with guanidine hydrochloride monitored at 220 nm by circular dichroism. […] All experiments were carried out with PBS buffer.
as §1, §2

Data set [4] concerns the molecule itself. The data set is described as follows: SEC-MALS, self-association.

B1: dIG22 (other)
chain: SIEVRVKGDRYEFRNNSDKPATLEVEKNGKREEYHMNPGESVEVRGPPGQDIRFEMTMDGTTYRYRLS
notes: De novo designed immunoglobulin-like domain; not shown: N-terminal thrombin-cleavable His6-tag encoded by pET-28b+
For the protein B1, the binding result in data set [1] is on record as “binds”.

B2: dIG21 (other)
chain: SIEVRVKGDRYEFRNNSDKPATLEVEKNGKREEYHMNPGESVEVRGEPGQDIRFEMVMEGTTYRYRLS
notes: as for B1
As to B2, the binding result in data set [2] is listed as “no binding”.

B3: dIG23 (other)
chain: DLEVRRKDGKFEFRNNSDKPATLEVEKDGQREEYRMNPGETIEVQAPPGQDVRFTVEMPGREYRYKLD
notes: as for B1
Consider B3, for which the binding result in data set [1] is listed as “binds”.

B4: dIG15 (other)
chain: RPKVQLELHGNKMRVRLRNDSSTPVEVHIKVGDEKRTVTVNPGEEVEVTFSTTDPRELKNATIQLHQGDQTVEYRVD
notes: as for B1
On to B4, for which, in data set [1], the binding result is reported as “binds”.

B5: dIG7 (other)
chain: RMEVRVSNGRVEIENKSSQPGRVEVRFNGKRYEYTANPGERVEVEVSPEELKNLRVRLEYDGKTEETQYS
notes: as for B1
Regarding B5, the binding result in data set [1] is recorded as “binds”.

B6: dIG8-CC (other)
chain: GHMRIEVRVDNGRVRVRNGTDRPCRVRVTAGGETREYTVNPGTELEVELSPEQQNNAEVEVECGNEKYRFQLG
modifications: C21 and C60 found both disulfide-linked and unbound in the crystals
notes: De novo designed immunoglobulin-like domain, double mutant of dIG8; Built as the untagged crystallization construct; also called dIG8-CC (V21C, V60C)
Regarding B6, in data set [3], the binding result is reported as “binds”.

B7: dIG14-scdim (other)
chain: GRVEVRVEFEGDKMRVRLRNDSSTPVEVHIKVGDEKRTVTVNPGEEVEVTFSANDPHKFNRPQFTIEWGGGGRVEVRVEFEGDKMRVRLRNDSSTPVEVHIKVGDEKRTVTVNPGEEVEVTFSANDPHKFNRPQFTIEWG
notes: Two 6-stranded dIG14 domains (X1-X13) fused by a diglycine linker; also called single-chain dimer; dIG14-scdim designed with a GG linker
B7: the binding result in data set [4] is “no binding”.

B8: dIG14 (other)
chain: MGRVEVRVEFEGDKMRVRLRNDSSTPVEVHIKVGDEKRTVTVNPGEEVEVTFSANDPHKFNRPQFTIEWGGQRQHFQHHHHHH
notes: De novo designed immunoglobulin-like domain; Built here as the crystallization construct (pET28*-dIG14); it may instead be the pET-28b+ form with an N-terminal thrombin-cleavable His6-tag; also called designed ImmunoGlobulin 14
In the case of B8, the binding result in data set [1] was “binds”.

B9: dIG8 (other)
chain: RIEVRVDNGRVRVRNGTDRPVRVRVTAGGETREYTVNPGTELEVELSPEQQNNAEVEVEVGNEKYRFQLG
notes: De novo designed immunoglobulin-like domain; also called parental dIG8; not shown: N-terminal hexa-histidine tag and thrombin cleavage site from pET-28b+ (adds 2.3 kDa)
B9: the binding result in data set [3] was “binds”.

For the origin of these results see patent publication US20230279055A1 (University of Washington, published 2023).
